Experiment [1] deals with T1, hen egg lysozyme (hen, UniProt P00698 19-147).
T1 construct: Soluble monovalent antigen; Biotinylated for YSD titration; unlabelled analyte in SPR and titrant in ITC; also called HEL
The experiment can be described thus: YSD antigen titration, flow cytometry, biotin-HEL and SAPE. (In general: Flow cytometry measures light scatter and fluorescence of single cells or particles in a stream.)

Experiment [2] concerns the target T1, hen egg lysozyme. In words: ITC at 25 C, VLR refolded from E. coli inclusion bodies, HEL injected.
For experiment [3], the target named is T1, hen egg lysozyme. The experiment can be described thus: SPR (BIAcore T100), biotinylated yeast-secreted VLR on NeutrAvidin, antigen as analyte. Background: SPR reads the build-up and loss of mass on a sensor chip optically.
The target in experiment [4] is T1, hen egg lysozyme. The experiment can be described thus: SPR, steady-state analysis, VLRB.2D (117.0-10.9 µM) over immobilized HEL (FIG. 3A); SPR of FIG. 3A; clone found by phage display.
In experiment [5] the target is T1, hen egg lysozyme. In words: SPR, Table 1.
For experiment [6], the target named is T1, hen egg lysozyme. In words: SPR, VLR over immobilized HEL.
In experiment [7] the target is T1, hen egg lysozyme. The experiment can be described thus: SPR, steady-state analysis, 2DMut.12 (30.8-1.0 µM) over immobilized HEL (FIG. 3B).
Experiment [8] has as its target T1, hen egg lysozyme. In words: SPR (BIAcore T100), biotinylated yeast-secreted VLR on NeutrAvidin, HEL as analyte (7.66-0.00299 nM).

Numbering of substitutions follows the chain as printed.

The results in this text go back to patent US20110230374A1 (UNIVERSITY OF MARYLAND BALTIMORE, published 2011).

The Kd is the equilibrium constant for the complex coming apart.

T1 sequence (P00698 19-147): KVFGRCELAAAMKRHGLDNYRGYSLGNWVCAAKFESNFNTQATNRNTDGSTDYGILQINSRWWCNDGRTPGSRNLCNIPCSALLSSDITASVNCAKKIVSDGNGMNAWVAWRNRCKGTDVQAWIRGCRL

B1: VLRB.HEL.2D (other)
chain: ACPSQCSCSGTTVDCSGKSLASVPTGIPTTTQVLYLYDNQITKLEPGVFDRLTQLTRLDLDNNQLTVLPAGVFDKLTQLTQLSLNDNQLKSIPRGAFDNLKSLTHIWLLNNPWDCACSDILYLSRWISQHPGLVFGYLNLDPDSARCSGTNTPVRAVTEASTSPSKCP
notes: also called VLRB.2D; wild-type VLRB.2D
For the molecule B1, the Kd was found to be 659 nM with hen egg lysozyme [1], 427 nM in the experiment with hen egg lysozyme [2], 455 nM in the experiment with hen egg lysozyme [3] and 20000 nM in the experiment with hen egg lysozyme [4].

B2: VLRB.2DMut.12 (other)
chain: B1 chain with G132W, P142H
B2: the “fold improvement of affinity over wild-type VLRB.HEL.2D” value with hen egg lysozyme [5] is 100 fold. In addition, the “fold improvement of affinity over wild-type VLRB.2D” value in the experiment with hen egg lysozyme [6] came to 13 fold. The dissociation constant (Kd) in the experiment with hen egg lysozyme [1] was determined as 6.9 nM; in the experiment with hen egg lysozyme [2], 28 nM; with hen egg lysozyme [7], 1500 nM; in the experiment with hen egg lysozyme [3], 4.3 nM.

B3: VLRB.2DMut.15 (other)
chain: B1 chain with T29I, D86V, D141Y
As for B3, the Kd with hen egg lysozyme [2] is 8 nM; with hen egg lysozyme [3], 20.2 nM.

B4: VLRB.2DMut.13 (other)
chain: B1 chain with Q40R, K101R, G132W, P142H, E159K
Consider B4, for which the dissociation constant Kd is 34 nM with hen egg lysozyme [2] and 55.1 nM with hen egg lysozyme [3].

B5: VLRB.CTMut.5 (other)
chain: ACPSQCSCDQTTVYCHNRRLTSVPTGIPTTTQVLYLYDNQITKLEPGVFDRLTKLTHLSLGYNQLKSVPRGAFDNLKSLTHIWLLNNPWDCQCTDILYLKNWIVQHASIVNPHTHGGVDNVKCSGTNTPVRAVTEASTSPSKC
In the case of B5, in the experiment with hen egg lysozyme [5], the “fold improvement of affinity over VLRB.HEL.1” value was 1300 fold. In addition, binding with hen egg lysozyme [8] was characterised by a dissociation constant (Kd) of 0.119 nM.
